Source: article PMC6545606

How the values were obtained:
[1] = target: K48-linked diubiquitin (ubiquitin_(K48R) joined to ubiquitin_(G76C)), fluorescently labelled (human) (UniProt P0CG47); experiment: other fluorescence titration
[2] = target: ubiquitin_(G76C), fluorescently labelled (human) (UniProt P0CG47); experiment: other fluorescence titration
[3] = target: K63-linked diubiquitin (ubiquitin_(K63R) joined to ubiquitin_(G76C)), fluorescently labelled (human) (UniProt P0CG47); experiment: other fluorescence titration
[4] = target: K48-linked diubiquitin (Homo sapiens) (UniProt P0CG47); settings: cited from earlier work
ubiquitin (Homo sapiens) = ubiquitin (Homo sapiens) (UniProt P0CG47); settings: cited from earlier work

S5a, sequence (P55036 whole entry): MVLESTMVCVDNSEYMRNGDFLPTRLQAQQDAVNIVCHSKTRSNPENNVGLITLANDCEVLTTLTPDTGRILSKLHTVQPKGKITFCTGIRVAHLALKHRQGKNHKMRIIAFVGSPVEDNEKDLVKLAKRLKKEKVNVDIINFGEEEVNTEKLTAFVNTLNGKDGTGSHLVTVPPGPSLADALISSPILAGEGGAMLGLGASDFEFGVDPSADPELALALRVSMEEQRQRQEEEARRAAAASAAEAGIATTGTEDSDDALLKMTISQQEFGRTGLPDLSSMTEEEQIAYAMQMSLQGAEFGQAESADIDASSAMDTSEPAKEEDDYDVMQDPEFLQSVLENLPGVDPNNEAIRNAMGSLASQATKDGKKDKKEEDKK

Substance | Kd [1] | Kd [2] | Kd [3] | Kd [4] | Kd (ubiquitin (Homo sapiens))
StoD (S. Typhi outer protein D), full-length, untagged (enzyme) | 15 µM | 55 µM | 5.6 µM |  | 
S5a (from UniProt P55036) |  |  |  | 8.9 µM | 73 µM
